Consider two molecules from paper PMC4522605, “Evolution of plant δ^1-pyrroline-5-carboxylate reductases from phylogenetic and structural perspectives” (Frontiers in Plant Science, 2015).

Data set [1] addresses Bacillus cereus P5CR (Bc_2977), full-length (Bacillus cereus). Description: SEC; HiLoad 16/600 Superdex 200 Prep Grade; 1.5 mL of purified protein at ~5 mg/mL; run in lysis buffer (50 mM HEPES pH 8.0, 500 mM NaCl, 5% glycerol, 20 mM imidazole, 10 mM β-mercaptoethanol); calibrated with chymotrypsinogen A, albumin, SpP5CR decamer (275 kDa) and thyroglobulin.
Data set [2] deals with the molecule itself. The description is as above.

As a reminder, the stoichiometry N is a count of units in the complex or per binding partner. In data set [1], “Bacillus cereus P5CR (Bc_2977), full-length (enzyme)” gave a stoichiometry N of 10.

B1: Arabidopsis thaliana P5CR (δ1-pyrroline-5-carboxylate reductase) (enzyme, UniProt P54904 1-276, looked up)
chain: MEILPIPAESFKVGFIGAGKMAESIARGVVASGVLPPNRICTAVHSNLNRRDVFESFGVNVFSTSEEVVKESDVVIFSVKPQVVKKAVTELKSKLSKNKILVSVAAGIKLNDLQEWSGQDRFIRVMPNTPAAVGEAASVMSLGTGATEEDGAIVAMLFGAVGKILKADEKMFDAVTGLSGSGPAYIFLAIEALADGGVAAGLPRELALSLASQTVLGAATMVSKTGKHPGVLKDDVTSPGGTTIAGVHELEKGSFRATLMNAVVAAAKRSRELSQS
notes: Pyrroline-5-carboxylate reductase of Arabidopsis thaliana; coding gene cloned into pMCSG68 (construct as in Giberti et al., 2014); also called AtP5CR; P5C reductase; source: E. coli BL21 Gold, purified (HisTrap HP, TEV cleavage, second HisTrap HP pass); not shown: His6, N-terminal, cleaved; copies: 10
As for B1, the “stoichiometry N” value in data set [2] was 10.
